Results taken from publication PMC7820495 (2021).

Target: T1, GST-SVIP (Drosophila SVIP, CG32039) (Drosophila, UniProt Q8IQC6 1-82)
T1 chain: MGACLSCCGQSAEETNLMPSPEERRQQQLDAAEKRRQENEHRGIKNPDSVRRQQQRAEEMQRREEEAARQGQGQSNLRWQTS

B1: MBP-VCP^N-D1 (Drosophila VCP, N-terminal and first D1 ATPase domain) (domain or fragment)
chain: MADSKGEDLATAILKRKDRPNRLIVEEAQNDDNSVVSLSQAKMDELQLFRGDTVILKGKRRKETVCIVLSDDTCPDEKIRMNRVVRNNLCVHLSDVVSVQSCPDVKYGKRVRILPIDESTEGVTGNLFEIYLKPYFLEAYRPIHMGDNFIVRAAMRPIEFKVVLTDPEPYCIVAPETVIFCDGDPIKREEEEESLNAVGYDDIGGCRKQLAQIKEMVELPLRHPSLFKAIGVKPPRGILMYGPPGTGKTLIARAVANETGAFFFLINGPEIMSKLAGESESNLRKAFEEAEKNSPAIIFIDEIDAIAPKRDKTHGEVERRIVSQLLTLMDGMKKSSHLIVMAATNRPNSIDPALRRFGRFDREIDIGIPDATGRLEVLRIHTKNMKLHDDVDLEQIAAESHGHVGADLASLCSEAALQQIREKMDLIDLEDDKIDAEVLASLAVTMENFRYAMTKSSPSALRETVVEVPNTTWTDIGGLESVKKELQELVQYPVEHPDKFLKFGMQPSRGVLFYGPPGCGKTLLAKAIANECQANFISVKGPELLTMWFGESEANVRDIFDKARSAAPCVLFFDELDSIAKARGGNVGDAGGAADRVINQILTEMDGMGAKKNVFIIGATNRPDIIDPAILRPGRLDQLIYIPLPDDKSREAILKANLRKSPLAKEVDLTYIAKVTQGFSGADLTEICQRACKLAIRQAIEAEIRREKERAENQNSAMDMDEDDPVPEITSAHFEEAMKFARRSVSDNDIRKYEMFAQTLQQSRGFGQNFRFPGQTGNTSGSGNNLPVNSPGDNGDDDLYS
- Kd: 700 nM
